Laboratory results: patent EP0833843B1
pKi: −log10 of the molar value.

Molecular target: MC1-R (melanocyte-stimulating hormone receptor)
Experiment: inhibition of MC1-R activation by the purified recombinant ASP preparation; assay details not given (Ollmann et al., in preparation)

Question: “Recombinant mouse agouti signal protein (ASP) (ligand)” was tested. Which pKi did it give?
Answer: Its pKi is 9.66.
